In paper PMC11479944:

Columns and labels:
[1] = molecular target: GluA2 N-terminal domain (isolated GluA2 NTD) (rat); experiment: SEC-MALS; GluA2 NTD injected at 13 mg/mL and 1 mg/mL (legend; the text says 1-2 mg ml^-1), 100 µl samples, Superdex S200 10/300, 10 mM HEPES, 150 mM KCl, pH 7.5; only dimers seen, no step from dimers to tetramer
[2] = molecular target: rat GluA2flip(Q) isoform, tagged with a FLAG epitope near its C terminus (rat)

Substance | stoichiometry N [1] | recovery from desensitization, patch-clamp recordings of GluA2 expressed in HEK293 cells, switching from pH 7.4 to pH 5.5 (pH 6.4 also tested) [2] [fold]
GluA2 N-terminal domain (isolated GluA2 NTD) (domain or fragment) | 2 | 
rat GluA2flip(Q) isoform, tagged with a FLAG epitope near its C terminus (receptor) |  | 2
